We go through six molecules from article PMC2702170, “DNA Structure Modulates the Oligomerization Properties of the AAV Initiator Protein Rep68” (PLoS Pathogens, 2009).

What is called stoichiometry N is a count of units in the complex or per binding partner. As usually defined, the Kd is the free concentration of one partner at which half of the binding sites on the other are occupied at equilibrium, for simple one-to-one binding.

Data set [1] deals with the molecule itself. The data set is described as follows: cryo-EM structure; Rep68-heteroduplex complex purified by size-exclusion chromatography; 2D classification of a limited number of end views. (SEC sorts molecules by how far they enter the pores of the column.)
Data set [2] deals with the molecule itself. The data set is described as follows: cryo-EM structure; Rep68-ssDNA complex purified on Superose 6, about 0.4 mg/ml; 0.05% n-octyl β-D-glucopyranoside for side views; reference-free 2D alignment and classification only (no 3D map).
Data set [3] concerns the molecule itself. In words: AUC; with RBS dsDNA; sedimentation velocity (Rep68 1 mg/ml, 2.8 µM RBS dsDNA, buffer A, 45,000 rpm, 20°C) and sedimentation equilibrium (complex purified by gel filtration, OD260 0.25 or 0.75; 4,000, 5,000 and 7,000 rpm, 20°C).
Data set [4] concerns the molecule itself. In words: SEC; Superose 6 10/300 GL, buffer A (25 mM Tris-HCl pH 8.0, 200 mM NaCl, 5% glycerol, 1 mM TCEP); Rep protein 16.6 µM incubated with 2.8 µM ssDNA (polydT25) 30 min on ice; also with 1 mM ATP, ATP/CaCl2 or ATP/MgCl2 added (same complex).
In data set [5] the target is T1, OID (OID-N208) (Adeno-associated virus 2 (AAV2), UniProt P03132 1-208). The data set is described as follows: size exclusion chromatography; 2.8 or 16.6 uM RBS dsDNA, 200 mM NaCl; Anisotropy: 20 mM HEPES pH 7.5, 50 mM NaCl, 5 nM DNA, 20 C, 15 min. SEC: 25 mM Tris-HCl pH 8.0 (4 C), 200 mM NaCl, 5% glycerol, 1 mM TCEP, 16.6 uM protein, 30 min on ice. Conditions: protein: recombinant; chain copies: 2; blunt.

Data set [6] addresses T2, Rep68 (Adeno-associated virus 2 (AAV2), UniProt P03132 1-536). The data set is described as follows: size exclusion chromatography; sedimentation velocity; SAXS; apparent ~578 kDa; five Rep68 subunits; Anisotropy: 20 mM HEPES pH 7.5, 50 mM NaCl, 5 nM DNA, 20 C, 15 min. SEC: 25 mM Tris-HCl pH 8.0 (4 C), 200 mM NaCl, 5% glycerol, 1 mM TCEP, 16.6 uM protein, 30 min on ice. Conditions: protein: recombinant; tags: untagged (His6-PreScission tag removed); chain copies: 5; blunt.

A further data set addresses His-Rep68 WT (Adeno-associated virus 2 (AAV2), UniProt P03132 1-536). In words: size exclusion chromatography; somewhat less efficient than untagged; Anisotropy: 20 mM HEPES pH 7.5, 50 mM NaCl, 5 nM DNA, 20 C, 15 min. SEC: 25 mM Tris-HCl pH 8.0 (4 C), 200 mM NaCl, 5% glycerol, 1 mM TCEP, 16.6 uM protein, 30 min on ice. Conditions: protein: recombinant; tags: N-terminal His6-PreScission site; chain copies: 16.

Data set [7] concerns the target T3, Rep40 (Adeno-associated virus 2 (AAV2), UniProt Q89269 1-312).
T3 sequence: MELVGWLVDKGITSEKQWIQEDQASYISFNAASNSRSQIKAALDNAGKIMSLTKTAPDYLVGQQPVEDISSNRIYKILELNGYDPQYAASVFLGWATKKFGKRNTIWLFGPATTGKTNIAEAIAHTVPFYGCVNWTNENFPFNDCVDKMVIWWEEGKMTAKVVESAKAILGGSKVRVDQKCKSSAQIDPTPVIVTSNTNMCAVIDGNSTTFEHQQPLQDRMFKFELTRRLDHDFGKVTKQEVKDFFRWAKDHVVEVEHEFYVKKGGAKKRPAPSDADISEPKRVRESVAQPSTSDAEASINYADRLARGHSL
In words: size exclusion chromatography; 2.8 or 16.6 uM ssDNA, 200 mM NaCl; ssDNA elutes free; Anisotropy: 20 mM HEPES pH 7.5, 50 mM NaCl, 5 nM DNA, 20 C, 15 min. SEC: 25 mM Tris-HCl pH 8.0 (4 C), 200 mM NaCl, 5% glycerol, 1 mM TCEP, 16.6 uM protein, 30 min on ice. Conditions: protein: recombinant.

In data set [8] the target is T1, OID (OID-N208). The data set is described as above. Conditions: protein: recombinant; chain copies: 2.
Data set [9] concerns the target T2, Rep68. The data set is described as follows: size exclusion chromatography; sedimentation velocity; SAXS; cryo-EM; no nucleotide; apparent ~2.3 MDa; Anisotropy: 20 mM HEPES pH 7.5, 50 mM NaCl, 5 nM DNA, 20 C, 15 min. SEC: 25 mM Tris-HCl pH 8.0 (4 C), 200 mM NaCl, 5% glycerol, 1 mM TCEP, 16.6 uM protein, 30 min on ice. The conditions noted are these: protein: recombinant; tags: untagged (His6-PreScission tag removed); chain copies: 16.

In data set [10] the target is T2, Rep68. The data set is described as follows: fluorescence anisotropy; Anisotropy: 20 mM HEPES pH 7.5, 50 mM NaCl, 5 nM DNA, 20 C, 15 min. SEC: 25 mM Tris-HCl pH 8.0 (4 C), 200 mM NaCl, 5% glycerol, 1 mM TCEP, 16.6 uM protein, 30 min on ice. Conditions: protein: recombinant; tags: untagged (His6-PreScission tag removed); chain copies: 16; label: 5' 6-carboxyfluorescein. For orientation: In fluorescence polarisation assays a small probe gives low polarisation when free and higher when bound to something large.

For data set [11], the target named is T3, Rep40. The data set is described as above. Conditions: protein: recombinant; label: 5' 6-carboxyfluorescein.
Data set [12] has as its target T1, OID (OID-N208). The data set is described as above. The conditions noted are these: protein: recombinant; chain copies: 2; label: 5' 6-carboxyfluorescein.

B1: Rep68 (adeno-associated virus 2), non-tagged (natural protein)
chain: MPGFYEIVIKVPSDLDGHLPGISDSFVNWVAEKEWELPPDSDMDLNLIEQAPLTVAEKLQRDFLTEWRRVSKAPEALFFVQFEKGESYFHMHVLVETTGVKSMVLGRFLSQIREKLIQRIYRGIEPTLPNWFAVTKTRNGAGGGNKVVDECYIPNYLLPKTQPELQWAWTNMEQYLSACLNLTERKRLVAQHLTHVSQTQEQNKENQNPNSDAPVIRSKTSARYMELVGWLVDKGITSEKQWIQEDQASYISFNAASNSRSQIKAALDNAGKIMSLTKTAPDYLVGQQPVEDISSNRIYKILELNGYDPQYAASVFLGWATKKFGKRNTIWLFGPATTGKTNIAEAIAHTVPFYGCVNWTNENFPFNDCVDKMVIWWEEGKMTAKVVESAKAILGGSKVRVDQKCKSSAQIDPTPVIVTSNTNMCAVIDGNSTTFEHQQPLQDRMFKFELTRRLDHDFGKVTKQEVKDFFRWAKDHVVEVEHEFYVKKGGAKKRPAPSDADISEPKRVRESVAQPSTSDAEASINYADRLARGHSL
notes: Rep68 protein of adeno-associated virus 2 (AAV2), GenBank AAC03774; Expressed as His6-PreScission site-Rep68; the His-PP tag was removed with PreScission protease; also called untagged Rep68; non-tagged Rep68; source: E. coli BL21(DE3)pLysS, purified (Ni column, PreScission cleavage, second Ni column, Superdex 200 gel filtration); not shown: His6, N-terminal, cleaved
On to B1, for which the “stoichiometry N” value in [1] turned out to be 8; in data set [2] it was 16; in [3] it was 5.

B2: His-Rep68 K406A (natural protein)
chain: MPGFYEIVIKVPSDLDGHLPGISDSFVNWVAEKEWELPPDSDMDLNLIEQAPLTVAEKLQRDFLTEWRRVSKAPEALFFVQFEKGESYFHMHVLVETTGVKSMVLGRFLSQIREKLIQRIYRGIEPTLPNWFAVTKTRNGAGGGNKVVDECYIPNYLLPKTQPELQWAWTNMEQYLSACLNLTERKRLVAQHLTHVSQTQEQNKENQNPNSDAPVIRSKTSARYMELVGWLVDKGITSEKQWIQEDQASYISFNAASNSRSQIKAALDNAGKIMSLTKTAPDYLVGQQPVEDISSNRIYKILELNGYDPQYAASVFLGWATKKFGKRNTIWLFGPATTGKTNIAEAIAHTVPFYGCVNWTNENFPFNDCVDKMVIWWEEGKMTAKVVESAKAILGGSKVRVDQKCASSAQIDPTPVIVTSNTNMCAVIDGNSTTFEHQQPLQDRMFKFELTRRLDHDFGKVTKQEVKDFFRWAKDHVVEVEHEFYVKKGGAKKRPAPSDADISEPKRVRESVAQPSTSDAEASINYADRLARGHSL
notes: Rep68 protein of adeno-associated virus 2 (AAV2), GenBank AAC03774, with K406A; source: E. coli BL21(DE3)pLysS, purified (Ni column, Superdex 200 gel filtration); not shown: His6, N-terminal, kept
Consider B2, for which the binding result in [4] was “binds”.

B3: His-Rep68 K404A (natural protein)
chain: MPGFYEIVIKVPSDLDGHLPGISDSFVNWVAEKEWELPPDSDMDLNLIEQAPLTVAEKLQRDFLTEWRRVSKAPEALFFVQFEKGESYFHMHVLVETTGVKSMVLGRFLSQIREKLIQRIYRGIEPTLPNWFAVTKTRNGAGGGNKVVDECYIPNYLLPKTQPELQWAWTNMEQYLSACLNLTERKRLVAQHLTHVSQTQEQNKENQNPNSDAPVIRSKTSARYMELVGWLVDKGITSEKQWIQEDQASYISFNAASNSRSQIKAALDNAGKIMSLTKTAPDYLVGQQPVEDISSNRIYKILELNGYDPQYAASVFLGWATKKFGKRNTIWLFGPATTGKTNIAEAIAHTVPFYGCVNWTNENFPFNDCVDKMVIWWEEGKMTAKVVESAKAILGGSKVRVDQACKSSAQIDPTPVIVTSNTNMCAVIDGNSTTFEHQQPLQDRMFKFELTRRLDHDFGKVTKQEVKDFFRWAKDHVVEVEHEFYVKKGGAKKRPAPSDADISEPKRVRESVAQPSTSDAEASINYADRLARGHSL
notes: Rep68 protein of adeno-associated virus 2 (AAV2), GenBank AAC03774, with K404A; source: E. coli BL21(DE3)pLysS, purified (Ni column, Superdex 200 gel filtration); not shown: His6, N-terminal, kept
For the molecule B3, the binding result in data set [4] is reported as “binds”.

B4: RBS dsDNA (JM-2/JM-20) (dsDNA)
DNA 1: GCCTCAGTGAGCGAGCGAGCGCGCAGAG
DNA 2: CTCTGCGCGCTCGCTCGCTCACTGAGGC
Turning to B4, the binding result in the data set with OID (OID-N208) [5] and with Rep68 [6] was “binds” in each case.
In the case of TTTTTTTTTTTTTTTTTTTTTTTTT (ssDNA) [poly-dT25 ssDNA], the binding result in the data set with His-Rep68 WT is “binds”; with Rep40 [7], “no binding”; with OID (OID-N208) [8] it was “no binding”; in the data set with Rep68 [9], “binds”.
With TTTTTTTTTTTTTTTTTTTTTTTTTTTTTTTTTTTTTT (ssDNA) [poly-dT38 5'-FAM], the Kd with Rep68 [10] was 23 nM; in the data set with Rep40 [11], roughly 3500 nM; in the data set with OID (OID-N208) [12], roughly 130 nM.
